Changes are numbered by the printed parent chain. Numbers in names are those of the source. Each block holds one binder with its values, some of them ahead of it.
Legend:
[1] = biological target: T1, CD20 on WIL2-S cells (human, UniProt P11836 1-297); assay: competitive Scatchard on WIL2-S cells, apparent Kd; competitor of 125I-2H7.v138
T1 construct: whole, on cells; also called CD20抗原; 人CD20
T1 sequence (looked up): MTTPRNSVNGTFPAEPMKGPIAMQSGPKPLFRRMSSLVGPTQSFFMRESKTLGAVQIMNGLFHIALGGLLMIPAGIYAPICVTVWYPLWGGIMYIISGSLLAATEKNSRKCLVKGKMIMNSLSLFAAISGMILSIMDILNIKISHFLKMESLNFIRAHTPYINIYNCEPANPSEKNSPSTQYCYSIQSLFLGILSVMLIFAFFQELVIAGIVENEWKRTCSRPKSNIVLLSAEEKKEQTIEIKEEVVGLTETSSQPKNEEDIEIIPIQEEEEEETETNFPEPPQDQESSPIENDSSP

[2] = biological target: T1, CD20 on WIL2-S cells; assay: competitive Scatchard on WIL2-S cells, apparent Kd; competitor of 125I-2H7.v511
[3] = biological target: T2, 人FcRn (human, UniProt P55899 24-297; P61769 21-119, limits assumed); assay: ELISA, biotinylated human FcRn on NeutrAvidin plate, pH 6.0
T2 construct: immobilised on a CM5 chip (BIAcore) or biotinylated and captured on NeutrAvidin (ELISA); also called huFcRn; human FcRn

[4] = biological target: T2, 人FcRn; assay: ELISA, biotinylated human FcRn on NeutrAvidin plate, pH 7.4

B2: 2H7.v477 (antibody, human IgG1, kappa)
heavy: EVQLVESGGGLVQPGGSLRLSCAASGYTFTSYNMHWVRQAPGKGLEWVGAIYPGNGATSYNQKFKGRFTISVDKSKNTLYLQMNSLRAEDTAVYYCARVVYYSASYWYFDVWGQGTLVTVSSASTKGPSVFPLAPSSKSTSGGTAALGCLVKDYFPEPVTVSWNSGALTSGVHTFPAVLQSSGLYSLSSVVTVPSSSLGTQTYICNVNHKPSNTKVDKKVEPKSCDKTHTCPPCPAPELLGGPSVFLFPPKPKDTLMISRTPEVTCVVVDVSHEDPEVKFNWYVDGVEVHNAKTKPREEQYNATYRVVSVLTVLHQDWLNGKEYKCKVSNAALPAPIAATISKAKGQPREPQVYTLPPSREEMTKNQVSLTCLVKGFYPSDIAVEWESNGQPENNYKTTPPVLDSDGSFFLYSKLTVDKSRWQQGNVFSCSVMHEALHWHYTQKSLSLSPGK
light: DIQMTQSPSSLSASVGDRVTITCRASSSVSYLHWYQQKPGKAPKPLIYAPSNLASGVPSRFSGSGSGTDFTLTISSLQPEDFATYYCQQWAFNPPTFGQGTKVEIKRTVAAPSVFIFPPSDEQLKSGTASVVCLLNNFYPREAKVQWKVDNALQSGNSQESVTEQDSKDSTYSLSSTLTLSKADYEKHKVYACEVTHQGLSSPVTKSFNRGEC
notes: IgG1; 2H7.v138 with N434W
binding result [3]: binds

B3: 2H7.v364 (antibody, human IgG1, kappa, name in EU numbering)
heavy: B2 heavy with W439A
light: B2 light
notes: IgG1; 2H7.v138 background with the N434 change
binding result [4]: binds

B4: 2H7.v478 (antibody, human IgG1, kappa, name in EU numbering)
heavy: B2 heavy with W439F
light: B2 light
notes: as for B3
binding result [3]: binds

B5: 2H7.v479 (antibody, human IgG1, kappa, name in EU numbering)
heavy: B2 heavy with W439Y
light: B2 light
notes: as for B3
binding result [4]: binds

More lines, now with the values ahead:

Kd [1]: 110 pM
Kd [2]: 450 pM
B1: hu2H7.v511 (antibody, human IgG1, kappa, V domains shown)
VH: EVQLVESGGGLVQPGGSLRLSCAASGYTFTSYNMHWVRQAPGKGLEWVGAIYPGNGATSYNQKFKGRFTISVDKSKNTLYLQMNSLRAEDTAVYYCARVVYYSYRYWYFDVWGQGTLVTVSS
VL: DIQMTQSPSSLSASVGDRVTITCRASSSVSYLHWYQQKPGKAPKPLIYAPSNLASGVPSRFSGSGSGTDFTLTISSLQPEDFATYYCQQWAFNPPTFGQGTKVEIKR
notes: full-length IgG1

binding result [4]: binds
B6: 2H7.v138 (antibody, human IgG1, kappa)
heavy: B2 heavy with W439N
light: B2 light
notes: IgG1
